Source: PMC4661386

Target: CUB_C (CUB module and C-terminal peptide from human TSG-6), wild type (human) (UniProt P98066)
Experiment: SPR; CUB_C (WT or E183S) amine-coupled to a CM5 chip (~1000 RU); rHC1 (WT or D298A) injected at 30 ul/min in 20 mM HEPES, 150 mM NaCl, 0.05% Tween 20, pH 7.4 (HBS-T), no EDTA (as purified CUB_C contains Ca2+); multicycle kinetics, 1:1 Langmuir model

Kd: 2.1 nM
B1: Recombinant human heavy chain 1 (rHC1) of inter-alpha-inhibitor, wild type (natural protein)
chain: SKSSEKRQAVDTAVDGVFIRSLKVNCKVTSRFAHYVVTSQVVNTANEAREVAFDLEIPKTAFISDFAVTADGNAFIGDIKDKVTAWKQYRKAAISGENAGLVRASGRTMEQFTIHLTVNPQSKVTFQLTYEEVLKRNHMQYEIVIKVKPKQLVHHFEIDVDIFEPQGISKLDAQASFLPKELAAQTIKKSFSGKKGHVLFRPTVSQQQSCPTCSTSLLNGHFKVTYDVSRDKICDLLVANNHFAHFFAPQNLTNMNKNVVFVIDISGSMRGQKVKQTKEALLKILGDMQPGDYFDLVLFGTRVQSWKGSLVQASEANLQAAQDFVRGFSLDEATNLNGGLLRGIEILNQVQESLPELSNHASILIMLTDGDPTEGVTDRSQILKNVRNAIRGRFPLYNLGFGHNVDFNFLEVMSMENNGRAQRIYEDHDATQQLQGFYSQVAKPLLVDVDLQYPQDAVLALTQNHHKQYYEGSEIVVAGRIADNKQSSFKADVQAHGEGQEFSITCLVDEEEMKKLLRERGHMLENHVERLWAYLTIQELLAKRMKVDREERANLSSQALQMSLDYGFVTPLTSMSIRGMADQDGLKPTIDKPSEDSPPLEMLGPRRTFVLSALQPSPTHSSSNTQRLPDRVTGVDTD
